Paper doi:10.1101/2025.11.18.689095 (2025)
Several values for one entry are separate records, joined by “and”; a condition that tells them apart may be missing. Equal entries are not always repeated. Where two headings read alike, the source gives them in different places. Where no end group is shown, it is not given here.

Key:
[1] = target: T1, human Tom70 (residues 108–608) (human, UniProt O94826 108-608); assay: ITC; run 1
T1 chain: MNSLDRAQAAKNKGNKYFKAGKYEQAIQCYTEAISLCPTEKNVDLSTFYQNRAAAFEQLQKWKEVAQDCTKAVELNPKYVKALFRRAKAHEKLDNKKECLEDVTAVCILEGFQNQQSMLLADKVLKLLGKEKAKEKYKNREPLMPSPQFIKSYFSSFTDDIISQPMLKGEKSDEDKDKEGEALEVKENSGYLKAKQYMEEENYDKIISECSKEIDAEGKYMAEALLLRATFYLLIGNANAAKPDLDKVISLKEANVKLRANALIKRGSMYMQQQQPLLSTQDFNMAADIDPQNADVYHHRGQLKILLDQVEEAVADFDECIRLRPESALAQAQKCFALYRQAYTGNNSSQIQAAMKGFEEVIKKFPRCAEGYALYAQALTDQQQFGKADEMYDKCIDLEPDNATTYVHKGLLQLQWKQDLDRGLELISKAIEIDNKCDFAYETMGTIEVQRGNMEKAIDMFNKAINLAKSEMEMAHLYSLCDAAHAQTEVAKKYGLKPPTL

[2] = target: T1, human Tom70 (residues 108–608); assay: ITC; run 2
[3] = target: T1, human Tom70 (residues 108–608); assay: ITC; run 3
[4] = target: T2, Tom70:Orf9b_(Helix) complex (human | SARS-CoV-2, UniProt O94826 108-608); assay: ITC
T2 chain 1: T1 chain
T2 chain 2: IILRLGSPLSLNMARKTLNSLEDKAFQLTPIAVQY

[5] = target: T1, human Tom70 (residues 108–608); assay: ITC; average
[6] = target: T1, human Tom70 (residues 108–608); assay: ITC
[7] = target: T2, Tom70:Orf9b_(Helix) complex; assay: ITC

Binder: YDTSRMEEVD-OH [Hsp90_(EEVD) peptide]
- Kd [1]: 12.8 µM
- Kd [2]: 10.9 µM
- Kd [3]: 11.9 µM
- Kd [4]: 12.4 µM and 12.8 µM and 12.3 µM and 11.8 µM
- Kd [5]: 11.9 µM
- Kd [6]: 12 µM
- Kd [7]: 12 µM
